According to US20050123977A1, “Assay and treatment” (Ludwig Institute for Cancer Research, priority 2003, published 2005):

B1: ASPP2: human ASPP2 protein (SEQ ID NO: 8), expressed from CMV-driven plasmid; stimulates apoptotic function of p53 (protein, listed as Homo sapiens)
chain: MMPMFLTVYLSNNEQHFTEVPVTPETICRDVVDLCKEPGESDCHLAEVWCGSERPVADNERMFDVLQRFGSQRNEVRFFLRHERPPGRDIVSGPRSQDPSLKRNGVKVPGEYRRKENGVNSPRMDLTLAELQEMASRQQQQIEAQQQLLATKEQRLKFLKQQDQRQQQQVAEQEKLKRLKEIAENQEAKLKKVRALKGHVEQKRLSNGKLVEEIEQMNNLFQQKQRELVLAVSKVEELTRQLEMLKNGRIDSHHDNQSAVAELDRLYKELQLRNKLNQEQNAKLQQQRECLNKRNSEVAVMDKRVNELRDRLWKKKAALQQKENLPVSSDGNLPQQAASAPSRVAAVGPYIQSSTMPRMPSRPELLVKPALPDGSLVIQASEGPMKIQTLPNMRSGAASQTKGSKIHPVGPDWSPSNADLFPSQGSASVPQSTGNALDQVDDGEVPLREKEKKVRPFSMFDAVDQSNAPPSFGTLRKNQSSEDILRDAQVANKNVAKVPPPVPTKPKQINLPYFGQTNQPPSDIKPDGSSQQLSTVVPSMGTKPKPAGQQPRVLLSPSIPSVGQDQTLSPGSKQESPPAAAVRPFTPQPSKDTLLPPFRKPQTVAASSIYSMYTQQQAPGKNFQQAVQSALTKTHTRGPHFSSVYGKPVIAAAQNQQQHPENIYSNSQGKPGSPEPETEPVSSVQENHENERIPRPLSPTKLLPFLSNPYRNQSDADLEALRKKLSNAPRPLKKRSSITEPEGPNGPNIQKLLYQRTTIAAMETISVPSYPSKSASVTASSESPVEIQNPYLHVEPEKEVVSLVPESLSPEDVGNASTENSDMPAPSPGLDYEPEGVPDNSPNLQNNPEEPNPEAPHVLDVYLEEYPPYPPPPYPSGEPEGPGEDSVSMRPPEITGQVSLPPGKRTNLRKTGSERIAHGMRVKFNPLALLLDSSLEGEFDLVQRIIYEVDDPSLPNDEGITALHNAVCAGHTEIVKFLVQFGVNVNAADSDGWTPLHCAASCNNVQVCKFLVESGAAVFAMTYSDMQTAADKCEEMEEGYTQCSQFLYGVQEKMGIMNKGVIYALWDYEPQNDDELPMKEGDCMTIIHREDEDEIEWWWARLNDKEGYVPRNLLGLYPRIKPRQRSLA
B2: ASPP1: human ASPP1 protein (SEQ ID NO: 7), V5-tagged, expressed from CMV-driven plasmid; stimulates apoptotic function of p53 (protein, listed as Homo sapiens)
chain: MMPMILTVFLSNNEQILTEVPITPETTCRDVVEFCKEPGEGSCHLAEVWRGNERPIPFDHMMYEHLQIWGPRREEVKFFLRHEDSPTENSEQGGRQTQEQRTQRNVINVPGDKRTEYGVGNPRVELTLSELQDMAARQQQQIENQQQMLVAKEQRLHFLKQQERRQQQSISENEKLQKLKERVEAQENKLKKIRAMRGQVDYSKIMNGNLSAEIERFSAMFQEKKQEVQTAILRVDQLSQQLEDLKKGKLNGFQSYNGKLTGPAAVELKRLYQELQIRNQLNQEQNSKLQQQKELLNKRNMEVAMMDKRISELRERLYGKKIQLNRVNGTSSPQSPLSTSGRVAAVGPYIQVPSAGSFPVLGDPIKPQSLSIASNAAHGRSKSANDGNWPTLKQNSSSSVKPVQVAGADWKDPSVEGSVKQGTVSSQPVPFSALGPTEKPGIEIGKVPPPIPGVGKQLPPSYGTYPSPTPLGPGSTSSLERRKEGSLPRPSAGLPSRQRPTLLPATGSTPQPGSSQQIQQRISVPPSPTYPPAGPPAFPAGDSKPELPLTVAIRPFLADKGSRPQSPRKGPQTVNSSSIYSMYLQQATPPKNYQPAAHSALNKSVKAVYGKPVLPSGSTSPSPLPFLHGSLSTGTPQPQPPSESTEKEPEQDGPAAPADGSTVESLPRPLSPTKLTPIVHSPLRYQSDADLEALRRKLANAPRPLKKRSSITEPEGPGGPNIQKLLYQRFNTLAGGMEGTPFYQPSPSQDFMGTLADVDNGNTNANGNLEELPPAQPTAPLPAEPAPSSDANDNELPSPEPEELICPQTTHQTAEPAEDNNNNVATVPTTEQIPSPVAEAPSPGEEQVPPAPLPPASHPPATSTNKRTNLKKPNSERTGHGLRVRFNPLALLLDASLEGEFDLVQRIIYEVEDPSKPNDEGITPLHNAVCAGHHHIVKFLLDFGVNVNAADSDGWTPLHCAASCNSVHLCKQLVESGAAIFASTISDIETAADKCEEMEEGYIQCSQFLYGVQEKLGVMNKGVAYALWDYEAQNSDELSFHEGDALTILRRKDESETEWWWARLGDREGYVPKNLLGLYPRIKPRQRTLA
modifications: V5 tag
notes: stimulates apoptotic function of p53
B3: iASPP: human iASPP protein (SEQ ID NO: 4), expressed from plasmid; inhibits apoptotic function of p53 (protein, listed as Homo sapiens)
chain: MWMKDPVARPLSPTRLQPALPPEAQSVPELEEVARVLAEIPRPLKRRGSMEQAPAVALPPTHKKQYQQIISRLFHRHGGPGPGGRSQSCPPSLRDLRPGQGPLLLPHQLPFHRPAPSQSSPPEQPQSMEMRSVLRKAGSPRKARRARLNPLVLLLDAALTGELEVVQQAVKEMNDPSQPNEEGITALHNAICGANYSIVDFLITAGANVNSPDSHGWTPLHCAASCNDTVICMALVQHGAAIFATTLSDGATAFEKCDPYREGYADCATYLADVEQSMGLMNSGAVYALWDYSAEFGDELSFREGESVTVLRRDGPEETDWWWAALHGQEGYVPRNYFGLFPRVKPQRSK

What was measured:
p53Pro72 [1] = molecular target: T1, p53Pro72 (Homo sapiens, UniProt P04637); assay: Flow cytometry apoptosis assay, p53Pro72; format: cell-based
T1 construct: expressed in transfected cells; host or cells: Saos-2 or H1299 cells
Procedure: Cells (10^6) were plated 24-48 hours prior to transfection in 10 cm plates. All cells were transfected with 2 μg of a plasmid expressing CD20 as a transfection marker. Transfection consisted of 1 μg of human p53Pro72 or p53Arg72, 10 μg of ASPP1 or ASPP2, 4 μg of iASPP and 8 μg of pSuper plasmid containing RNAi of iASPP as indicated. 36 hours after the transfection, both attached and floating cells were harvested and analysed as described.

p53Arg72 = molecular target: T2, p53Arg72 (Homo sapiens, UniProt P04637, P72R); assay: Transactivation assay (luciferase reporter), p53Arg72; format: cell-based; settings: Saos-2 cells, Bax promoter, co-transfection
T2 construct: expressed in transfected cells; host or cells: Saos-2 or H1299 cells
Procedure: (§1) Saos-2 or H1299 cells (5×10^5) were plated 24 hours prior to transfection in 6 cm dishes. All transactivation assays contained 1 μg of reporter plasmid. 50 ng of p53Pro72 or p53Arg72, 4 μg of ASPP1 or ASPP2, 2 μg of iASPP expression plasmids were used as indicated. In FIG. 4C cells were also co-transfected with 3 μg of pSuper plasmid containing iASPP RNAi as indicated. Cells were lysed in Reporter Lysis Buffer 16-24 hours after transfection and assayed using the Luciferase Assay kit (Promega, Wis., USA). The fold activation of a particular reporter was determined by the activity of the transfected plasmid divided by the activity of vector alone.

p53Pro72 and p53Arg72 = settings: RKO cells heterozygous for p53Pro72/p53Arg72
Procedure: For western blotting, cells were lysed in either NP40 lysis buffer or luciferase reporter lysis buffer. Between 15-100 μg of protein extract was loaded on SDS-PAGE gels. For immunoprecipitation, cells were lysed in NP40 lysis buffer and pre-cleared with protein G beads for 1 hour at 4° C. The protein concentration was determined and then 1-2 mg of the extract was incubated with antibody pre-bound to protein G beads for 4 hours or overnight at 4° C. The beads were washed twice in NP40 lysis buffer and twice in NET buffer. The IP beads were mixed with 5× sample buffer and loaded onto an SDS-PAGE gel. The gels were wet transferred on to Protran nitrocellulose membrane and the resulting blots were first incubated with primary antibody and subsequently with the appropriate secondary HRP conjugated antibody (Dako). The blot was exposed to hyperfilm following the use of ECL substrate solution (Amersham Life Science).
p53Pro72, p53Arg72, ASPP1, ASPP2 and iASPP were in vitro translated and labelled with ^35S -Methionine using the TNT T7 Quick coupled Transcription/Translation System (Promega). The lysates containing indicated proteins were incubated at 30° C. for 1 hour. The anti-ASPP1, ASPP2 or iASPP antibodies immobilised on protein G agarose beads were added to the binding reactions and incubated on a rotating wheel at 4° C. for 16 hours. The beads were then washed with PBS. The bound proteins were released in SDS gel sample buffer and analysed by 10% SDS-polyacrylamide gel electrophoresis (PAGE). Results were visualised using autoradiography for ^35S -Methionine labelled proteins. For immunoprecipitation using cell lysates, the expression of endogenous ASPP1, ASPP2, iASPP, p53Pro72 and p53Arg72 were detected by western blot using antibodies specific to these proteins derived from different species from that used in IP.

p53Pro72 [2] = molecular target: T1, p53Pro72; assay: Transactivation assay (luciferase reporter), p53Pro72; format: cell-based; settings: Saos-2 cells; for transcriptional activity of p53Pro72 on Bax promoter: co-transfection
Procedure: as §1

Molecule	apoptotic function of p53Pro72 (p53Pro72 [1]; H1299 cells)	apoptotic function of p53Pro72 (p53Pro72 [1]; Saos-2 cells)	transactivation function of p53Arg72 (p53Arg72)	co-immunoprecipitation of p53Pro72 compared with p53Arg72 (p53Pro72 and p53Arg72)	transcriptional activity of p53Pro72 on Bax promoter (p53Pro72 [2])	transactivation function of p53Pro72 (p53Pro72 [2]; promoter not stated in text (FIG. 2C))
B1	enhanced	selectively enhance	very little effect	Selective binding	significantly enhanced	
B2	enhanced	selectively enhance	very little effect	to a lesser extent	significantly enhanced	
B3		selectively inhibited		clearly larger		selectively inhibited
